Laboratory results from paper PMC12442371.

Target: IbcK (isobutylene catabolism gene K product), epoxide hydrolase from Mycolicibacterium sp. ELW1 (Mycolicibacterium sp. ELW1)
Assay: SEC; Biosep-SEC S3000 column on UPLC, 10 mM Tris-HCl pH 7, 150 mM NaCl, 0.3 mL/min, 10 µL injected; two peaks, dimer to monomers

Question: “IbcK (isobutylene catabolism gene K product), epoxide hydrolase from Mycolicibacterium sp. ELW1 (enzyme)” was tested. Which stoichiometry N did it give?
Answer: 2
